# Laboratory results published in paper PMC4431184, “The Use of the LanthaScreen TR-FRET CAR Coactivator Assay in the Characterization of Constitutive Androstane Receptor (CAR) Inverse Agonists” (Sensors (Basel, Switzerland), 2015).
# Ends that are not written are not given here.
# T1: glutathione-S-transferase (GST) tagged human CAR ligand-binding domain (LBD) (human)
# T1 construct: Component of a bought kit; It was held in the assay by a terbium-labelled anti-GST antibody (a tool only); also called CAR LBD; CAR-LBD
# T1 sequence (Q14994 whole entry, looked up): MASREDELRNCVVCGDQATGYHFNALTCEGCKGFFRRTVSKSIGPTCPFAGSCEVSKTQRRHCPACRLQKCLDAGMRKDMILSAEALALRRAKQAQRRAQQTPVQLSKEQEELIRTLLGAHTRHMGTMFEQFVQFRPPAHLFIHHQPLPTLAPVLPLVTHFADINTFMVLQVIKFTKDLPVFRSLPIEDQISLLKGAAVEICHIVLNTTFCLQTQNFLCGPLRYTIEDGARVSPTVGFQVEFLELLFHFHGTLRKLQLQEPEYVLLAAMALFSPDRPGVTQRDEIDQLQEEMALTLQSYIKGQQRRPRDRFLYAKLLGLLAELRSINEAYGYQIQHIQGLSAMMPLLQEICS
# B1: fluorescein-labeled PGC1α coactivator peptide (peptide)
# chain: EAEEPSLLKKLLLAPANTQ
# modifications: also: fluorescein label, position not given here
# Target: T1, glutathione-S-transferase (GST) tagged …
# Assay: FRET or BRET; LanthaScreen TR-FRET as a1, with the agonist CITCO 10 uM; three orders of adding the reagents (Figure 2A, 2B, 2C standard)
# Conditions: both partners purified
binder,measurement,value
B1,"fold of TR-FRET ratio with CITCO 10 uM over vehicle control (order: CAR LBD, peptide and antibody, CITCO)",1.94 fold
same,"fold of TR-FRET ratio with CITCO 10 uM over vehicle control (order: CITCO, peptide and antibody, CAR LBD)",2.26 fold
same,fold of TR-FRET ratio with CITCO 10 uM over vehicle control (standard order),2.56 fold
